Drawing on PMC12205998, this text covers stoichiometry N for one substance.

Experiment [1] concerns the target E. fergusonii BrxB WT (Escherichia fergusonii). Briefly: SEC; analytical SEC of E. fergusonii BrxB alone, 10 μM in 100 μl, Superdex 75 increase 10/300 GL, 20 mM Tris HCl pH 7.9, 150 mM NaCl; monomer and dimer.
The target is the same in experiment [2]. Briefly: native MS; collected BrxB SEC peaks exchanged into 10 mM ammonium bicarbonate, 0.5 mg/ml, positive ion electrospray time-of-flight MS; monomer and dimer.

E. fergusonii BrxB WT (natural protein): the stoichiometry N in experiment [1] and in experiment [2] was 2 throughout.
